This note sets out measurements from patent publication US20200157194A1 (Regeneron, published 2020).

Test [1] has as its target T1, recombinant human GREM1 (hGREM1-His; C-terminal 10His tagged, R&D, #5190-GR) (human, UniProt O60565 25-184, limits assumed).
T1 sequence: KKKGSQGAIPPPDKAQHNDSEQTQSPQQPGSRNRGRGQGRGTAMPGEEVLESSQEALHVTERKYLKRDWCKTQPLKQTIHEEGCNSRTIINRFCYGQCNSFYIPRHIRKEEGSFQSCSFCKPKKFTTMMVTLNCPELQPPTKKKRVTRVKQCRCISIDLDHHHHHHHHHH
Kind of test: cell-based or functional assay.

The target of test [2] is T2, human GREM1 (hGREM1-His; SEQ ID NO: 595) (human, UniProt O60565 25-184).
T2 construct: also called biotin-hGREM1-His; recombinant human GREM1 protein
T2 sequence: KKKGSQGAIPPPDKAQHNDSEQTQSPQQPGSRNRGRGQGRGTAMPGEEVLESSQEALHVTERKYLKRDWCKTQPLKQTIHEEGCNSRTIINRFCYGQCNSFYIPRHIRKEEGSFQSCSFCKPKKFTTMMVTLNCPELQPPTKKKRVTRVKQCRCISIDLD
Kind of test: SPR, Biacore T200, 25 C, mAb captured, hGREM1-His injected.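 Further: Heparin-supplemented HBS-EP+ used as running buffer, association and dissociation phases followed, Kd computed as koff divided by kon and half-life derived from koff.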

In test [3] the target is T1, recombinant human GREM1 (hGREM1-His; …). Kind of test: BLI Octet, mAb captured, 100 nM GREM1.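 Further: octet Red96 biolayer interferometry at 25 °C in pH 7.4 HEPES saline buffer, antibodies held on anti-human IgG Fc capture biosensors, then exposed to GREM1.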 On the technique in general: BLI is a label-free optical method that tracks binding on a fibre tip over time.
Test [4] shares this target. Kind of test: BLI Octet, mAb captured, 100 nM GREM1 + 5 uM heparin.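 Further: octet Red96 biolayer interferometry at 25 °C, antibodies captured on anti-human IgG Fc biosensors, pH 7.4 HEPES buffer with 0.1 mg/mL BSA.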
The target is the same in test [5]. Kind of test: BLI Octet, mAb captured, 100 nM GREM1 without vs with 5 uM heparin.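 Further: octet Red96 biolayer interferometry at 25 °C, antibodies captured on anti-human IgG Fc biosensors, association of GREM1 measured with versus without heparin in HEPES-buffered saline, pH 7.4.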
Test [6] has as its target T2, human GREM1 (hGREM1-His; SEQ ID NO: 595). Kind of test: competition ELISA, biotin-hGREM1-His (100 pM) binding to coated hBMP4. On the technique in general: An ELISA detects its analyte on a solid surface through an enzyme-linked reagent.
For test [7] the target is unchanged. Kind of test: SPR, Biacore T200, 37 C, mAb captured, hGREM1-His injected.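 Further: HBS-EP running buffer containing heparin, association and dissociation phases tracked, KD computed as koff over kon and half-life derived from koff.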
For test [8], the target named is T1, recombinant human GREM1 (hGREM1-His; …). Kind of test: cell-based or functional assay. The source holds these as a separate data set.
For test [9] the target is unchanged. Kind of test: cell-based or functional assay. This is another data set of the same source.

Where two headings read alike, the source gives them in different places.

B1: H2aM2898N (antibody, mouse IgG2, V domains shown)
VH: EVQLVESGGGLVQPGGSLRLSCAASGFTFSIYDMHWVRQATGKGLEWVSGIGNAGDTYYAGSVKGRFTISRENAKNSLYLQMNSLRAGDTAVYYCAREGPNYYYYGMDVWGQGTTVTVSS
VL: AIQMTQSPSSLSASVGDRVTITCRASQGIRDDLGWYQQKPGKAPKLLIYAASSLQSGVPSRFSGSGSGTDFTLTISSLQPEDFATYYCLQDYNYPWTFGQGTKVEIK
notes: H2M prefix = mouse IgG2 Fc (here H2aM); also called H2M2898N
With B1, in [1], the “IC50 [M], inhibition of hGREM1-His, W-20-17/BRE-luc luciferase (100 pM hBMP4, 10 nM hGREM1-His)” value turned out to be 1.4e-09 M. Besides, the binding result in [2] was “no binding (tested: 11 to 100 nM hGREM1-His injected)”.

B2: H2bM2891N (antibody, mouse IgG2, V domains shown)
VH: EVQMVESGGGLVQPGGSLRLSCAASRFTLSNYWMGWVRQAPGKGLEWVANIKQDGSEKYYVDSVRGRFTISRDNAKNSLYLQMNSLRAEDTAVYYCARDYDFWRSFDYWGQGTLVTVPS
VL: DIQMTQSPSSVSASVGDRVTITCRASQGVSSWLAWYQQTPGKAPKLLIYVVSSLQSGVPSRFSGSGSGTDFTLTINSLQPEDFATYYCQQGNSFPYTFGQGTKLEIK
notes: H2M prefix = mouse IgG2 Fc (here H2bM); also called H2M2891N
The term Kd denotes the free concentration of one partner at which half of the binding sites on the other are occupied at equilibrium, for simple one-to-one binding. One may read the koff as the first-order rate constant of dissociation. A low value points to a long-lived complex. One may read the kon as the second-order rate constant of association. The low end stands for slow association, the high end for fast association. Turning to B2, the “IC50 [M], inhibition of hGREM1-His, W-20-17/BRE-luc luciferase (100 pM hBMP4, 10 nM hGREM1-His)” value in test [1] was 1.1e-09 M. For the same molecule, in test [2], binding was put at a Kd of 60 nM, the koff worked out at 0.0012 s⁻¹, the kon turned out to be 20000 M⁻¹ s⁻¹ and the t1/2 turned out to be 9.6 min.

B3: H2bM2906N (antibody, mouse IgG2, V domains shown)
VH: EVQMVESGGGLVQPGGSLRLSCAASGFTLSNYWMGWVRQAPGKGLEWVANIKQDGSEKYYVDSVRGRFTISRDNAKNSLYLQMNSLRAEDTAVYYCARDYDFWRSFDYWGQGTLVTVSS
VL: DIQMTQSPSSVSASVGDRVTITCRASQGVSSWLAWYQQKPGKTPKLLIYVVSSLQSGVPSRFSGRGSGTDFTLTINSLQPEDFATYYCQQGNSFPYTFGQGTKLEIK
notes: H2M prefix = mouse IgG2 Fc (here H2bM); also called H2M2906N
With B3, in test [1], the “IC50 [M], inhibition of hGREM1-His, W-20-17/BRE-luc luciferase (100 pM hBMP4, 10 nM hGREM1-His)” value turned out to be 1.6e-09 M. Moreover, in test [2], the Kd came out at 15 nM, the koff turned out to be 0.0013 s⁻¹, the kon is 80000 M⁻¹ s⁻¹ and the t1/2 was 8.9 min.

B4: H3M2929N (antibody, V domains shown)
VH: QVQLVESGGGVVQPGRSLRLSCAASGFIFSSYGMHWVRQAPGKGLEWVAVIWNDGSNKYSADSVKGRFTVSRDNSKNTLYLQMNSLKAEDTAVYYCARDGEWEVFDYWGQGTLVTVSS
VL: DIVMTQSPVTLSASPGERATLSCRASQSVRSNLAWYQEKPGQAPRLLIYGASTRATGIPARFSGSGSGTEFTLTISSLQSEDFAVYYCQQYNDWPPWTFGQGTKVEIK
notes: H3M prefix marks the Fc (chimeric, mouse constant domains)
Consider B4, for which, in test [1], the “IC50 [M], inhibition of hGREM1-His, W-20-17/BRE-luc luciferase (100 pM hBMP4, 10 nM hGREM1-His)” value came out at 2.2e-09 M. In test [2], this molecule registered a Kd of 29 nM, a koff of 0.00362 s⁻¹, a kon of 125000 M⁻¹ s⁻¹ and a t1/2 of 3 min.

B5: H2bM2785N (antibody, mouse IgG2, V domains shown)
VH: EVQLLESGGGLVQPGGSLRLSCAASGFTFSSYVMNWVRQAPGKGLEWVSAISGSGGSTSYADSVKGRSTISRDNSKNTLYLQMNSLRAEDTAVYYCAKGDIAAIVFDAFDIWGQGTMVTVSS
VL: DIQMTQSPSSLSASVGDRVTITCQASQDISNCLNWYQHKPGKAPKLLIYDASYLETGGPSRFSGSGSGTDFTFTIRSLQPEDFATYYCQQYDNLPYTFGQGTKLEIK
B5: the “IC50 [M], inhibition of hGREM1-His, W-20-17/BRE-luc luciferase (200 pM hBMP4, 20 nM hGREM1-His)” value in test [1] amounted to 2.7e-08 M.

B6: H2aM2899N (antibody, mouse IgG2, V domains shown)
VH: QVQLVQSGAEVKKPGASVKVSCKASGFTFTSYDINWVRQATGQGLEWMGWMNPKSGNTDYAQKFLGRVTLTRNTSKSTAYMELSSLRSEDTAVYYCARGKQLVFDYWGQGTLVTVSA
VL: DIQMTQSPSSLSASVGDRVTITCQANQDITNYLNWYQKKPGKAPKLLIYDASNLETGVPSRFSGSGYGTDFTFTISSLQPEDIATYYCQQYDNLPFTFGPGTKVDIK
notes: H2M prefix = mouse IgG2 Fc (here H2aM); also called H2M2899N
For B6, in test [1], the “IC50 [M], inhibition of hGREM1-His, W-20-17/BRE-luc luciferase (100 pM hBMP4, 10 nM hGREM1-His)” value was 2.1e-09 M. In [2], the Kd was 270 nM, the koff stood at 0.002 s⁻¹, the kon came out at 8000 M⁻¹ s⁻¹ and the t1/2 came to 5.8 min.

B7: H4H6270P (antibody, human IgG4, V domains shown)
VH: QVQLVESGGDVVQPGRSLRLSCAASGFTFSSYGMHWVRQAPGKGLEWVAIIWNDGSNKYYTDSVKGRFTISRDNSKNTLYLQMNGLRAEDTAIYYCARDQDQFDYWGQGTLVTVSS
VL: EIVMTQSPATLSVSPGERATLSCRASQSISTNLAWYRQKPGQAPRLLIYDASTRATGIPARFSGSGSGTDFTLTISSLQSEDFAVYYCQQYSNWPPYTFGQGTKLEIK
notes: H4H prefix = human IgG4 Fc
What is called IC50 is the concentration that gives 50% inhibition. The low end stands for greater potency, the high end for weaker potency. On to B7, for which, in test [2], the Kd is 4.08 nM, the koff came to 0.000175 s⁻¹, the kon is 42900 M⁻¹ s⁻¹ and the t1/2 turned out to be 66 min. Besides, in [3], the “Binding Signal with 30 sec Association” value was determined as 0.2 nm and the “Binding Signal with 300 sec Association” value was 0.39 nm. For the same molecule, in test [4], the “Binding Signal with 30 sec Association” value stood at 0.05 nm and the “Binding Signal with 300 sec Association” value came out at 0.33 nm. Besides, in test [5], the “Reduction in Signal from Heparin at 30 sec” value amounted to 0.15 nm and the “Reduction in Signal from Heparin at 300 sec” value was 0.06 nm. For the same molecule, in [6], the “% blocked at maximum Ab tested (20 nM)” value worked out at 62% and the IC50 was determined as 1.9 nM. In test [7], this molecule had a Kd of 6.79 nM, a koff of 0.00065 s⁻¹, a kon of 95800 M⁻¹ s⁻¹ and a t1/2 of 18 min. For the same molecule, in test [8], the “hGREM1-His Inhibition IC50, M; W-20-17 cell differentiation assay (alkaline phosphatase)” value is 3.1 nM. In addition, in test [9], the “IC50 [M], inhibition of hGREM1-His, W-20-17/BRE-luc luciferase (100 pM hBMP4, 10 nM hGREM1-His)” value stood at 5.4e-10 M.

B8: H2bM2890N (antibody, mouse IgG2, V domains shown)
VH: QVQLVESGGGVVQPGRSLRLTCAASGFTFSSFGMHWVRQAPGKGLEWVAIIWYDGSNKYYADSVKGRFTISRDNSKNTLYLQMNSLRAEDTAVYYCAREDNWTRDYFDYWGQGTLVTVSS
VL: EIVLTQSPATLSLSPGERATLSCRASQSVSNFLAWYQQKPGQAPRLLIYDASNRATGIPARFSGSGSGTDFTLTISSLEPEDFAVYYCQQRSNWPPLPFGGGTKVEIK
notes: H2M prefix = mouse IgG2 Fc (here H2bM); also called H2M2890N
As for B8, the “IC50 [M], inhibition of hGREM1-His, W-20-17/BRE-luc luciferase (100 pM hBMP4, 10 nM hGREM1-His)” value in test [1] was found to be 2.1e-09 M. In [2], this molecule came in with a Kd of 130 nM, a koff of 0.001 s⁻¹, a kon of 10000 M⁻¹ s⁻¹ and a t1/2 of 11.6 min.

B9: H1M2907N (antibody, V domains shown)
VH: QVQLVESGGGVVQPGRSLRLSCAASGFTFSSYGMHWVRQAPGKGLEWVAIIWNDGSNKYYVDSVKGRFTISRANSKNTLYLQMNSLRAEDTAVYYCARDGLEPDAFDIWGQGTMVTVSS
VL: EIVLTQSPATLSLSPGERATLSCRASQSVSSFLAWYQQKPGQAPRLLIYDASNRATGIPARFSGSGSGTDFTLTISSLEPEDFAVYYCQQRSNWPPYTFGQGTKLEIK
notes: H1M prefix marks the Fc (chimeric, mouse constant domains)
B9: the “IC50 [M], inhibition of hGREM1-His, W-20-17/BRE-luc luciferase (100 pM hBMP4, 10 nM hGREM1-His)” value in [1] was determined as 1.8e-09 M. Moreover, in test [2], binding was characterised by a dissociation constant (Kd) of 45.3 nM, the koff worked out at 0.00281 s⁻¹, the kon worked out at 62000 M⁻¹ s⁻¹ and the t1/2 is 4.1 min.

B10: H2aM2901N (antibody, mouse IgG2, V domains shown)
VH: EVQLVESGGGLVKPGGSLRLSCAASGFTFSYYSMIWVRQAPGKGLEWVSSISSSSSYIYYADSVKGRFTISRDNAKKSMYLQMNSLRAEDTAVYYCARGSGYPDYWGQGTLVTVSS
VL: DIQMTQSPSSLSASVGDRVTITCRASQGINNYLAWYQQKPGKVPKLLIYAASTLRSGVPSRFSGSGSGTDFTLTISSLQPEDVATYYCQKYNSAPFTFGPGTKVDIK
notes: H2M prefix = mouse IgG2 Fc (here H2aM); also called H2M2901N
As to B10, the “IC50 [M], inhibition of hGREM1-His, W-20-17/BRE-luc luciferase (100 pM hBMP4, 10 nM hGREM1-His)” value in test [1] is 1.7e-09 M. In test [2], this molecule displayed a Kd of 8.8 nM, a koff of 0.00145 s⁻¹, a kon of 164000 M⁻¹ s⁻¹ and a t1/2 of 8 min.
